Laboratory results reported in article PMC3865534 (Leukemia, 2013).

Experiments:
[1] = tested on: macrophages and osteoblasts in BM and endosteum; conditions: previously confirmed; cited from earlier work
Excerpt: Using a similar immunohistochemistry approach, we examined whether the distribution of mature osteoblasts and macrophages within the BM and endosteal environment was disturbed by treatment with POL5551. […] In contrast to G-CSF (Figures 6c and d), treatmen ...

[2] = tested on: human CXCR4; assay: Receptor binding: competition with CXCR4 antibody clones 12G5/1D9 on Ao.o1_hCXCR4 cells; conditions: 1 μM, concurrent incubation with antibody, 4 °C, 30 min, PBS/BSA 0.5%, flow cytometry, n=3
Excerpt: (§1) (a, b) Analysis of the binding properties of POL5551 to CXCR4. […] CXCR4 Ab without agonist/antagonists (untreated) or isotypic control Ab (isotype) were used as positive and negative controls.
CXCR4 Ab without agonist/antagonists (untreated) or isotypic control Ab (isotype) were used as positive and negative controls.

[3] = tested on: BM cells (CFU-C) migrating towards CXCL12; assay: Transwell migration of BM CFU-C towards CXCL12; assay type: cell-based, mouse; conditions: CXCL12 100 ng/ml, 4 h
Experimental: (§2) Input cells and cells from the lower chamber were plated into a colony assay; colony-forming unit culture (CFU-C) migration is expressed as the percent of migrated CFU-C of total CFU-C contained in the inoculum (input).
as §1

[4] = tested on: BM cells stimulated with CXCL12; assay: F-actin polymerization assay after CXCL12 stimulation; assay type: cell-based, mouse; conditions: pretreatment with 1 μM; CXCL12 100 ng/ml, 37 °C, n=3
Excerpt: F-actin was then stained with AlexaFluor568-conjugated phalloidin (Molecular Probes, Eugene, OR, USA) followed by flow cytometric analysis of the relative staining intensity.
as §1

[5] = tested on: hematopoietic progenitor cells (CFU-C) in C57BL/6 mice; assay: CFU-C mobilization in C57BL/6 mice; assay type: in vivo
Experimental: (§3) POL5551 (Polyphor Ltd, Allschwil, Switzerland) was suspended in saline and either injected as bolus intraperitoneally (i.p.) or intravenously (i.v.) (0.5–100 μg/g body weight) or filled into continuous-release osmotic minipumps (model 2001, Alzet, Palo Alto, CA, USA), which were implanted under general anesthesia into a dorsal subcutaneous pouch. Mono-biotinylated POL5551 (Polyphor Ltd) was suspended in PBS (Life Technologies GmbH, Darmstadt, Germany) and injected i.p. rhG-CSF (Granocyte, Chugai, Frankfurt, Germany) was suspended in dH20 and diluted in saline to a final concentration of 0.5 μg/μl for i.p. injection. Mice received G-CSF injections every 12 h at a dose of 100 μg/kg for a total of nine doses i.p., referred to as ‘standard regimen' throughout the manuscript. Subsequent blood withdrawal and/or administration of POL5551 were performed directly after the last G-CSF injection on day 5.
(§4) For enumeration of CFU-C, aliquots of cells were incubated in duplicate in commercially available growth-factor-supplemented methyl cellulose medium for mouse CFU-C (Stem Cell Technologies, Vancouver, BC, USA or Cell Systems) as described.[23], [32] CFU-C (BFU-E, CFU-GM and CFU-GEMM) were enumerated after 6–8 days.

[6] = tested on: hematopoietic progenitor cells (CFU-C) in diabetic C57BL/6 mice; assay: CFU-C mobilization in Streptozotocin-induced diabetic mice; assay type: in vivo
Experimental: as §3, §4

[7] = tested on: hematopoietic progenitor cells (CFU-C); assay: Co-mobilization with G-CSF; assay type: in vivo, mouse; conditions: Plerixafor 5 or 10 mg/kg i.p. at end of standard regimen of G-CSF, n=6–8
Experimental: as §3, §4
(§5) Circulating CFU-Cs were enumerated at the indicated time points (mean±s.e.m., n=6–8 mice). […]

[8] = tested on: hematopoietic progenitor cells (CFU-C); assay: Co-mobilization with Cyclophosphamide (CY); assay type: in vivo, mouse; conditions: 5 mg/kg i.p. on day 8 after CY 200 mg/kg i.p.
Experimental: as §3, §4, §5

[9] = mouse, in vivo
[10] = tested on: hematopoietic progenitor cells (CFU-C) in C57BL/6 mice; conditions: Plerixafor in mice; cited from earlier work
Experimental: In this study, in vitro and in vivo properties of the novel CXCR4 antagonist POL5551 as a mobilizing agent were evaluated.

[11] = tested on: hematopoietic progenitor cells (CFU-C) in DBA/2 mice; assay: CFU-C mobilization, DBA/2 relative to C57BL/6 mice; assay type: in vivo; conditions: G-CSF standard regimen
Experimental: as §3, §4

[12] = tested on: white blood cells; assay: Mobilization of mature leukocyte subsets; assay type: in vivo, C57BL/6 mice; conditions: POL5551 4 h i.p., G-CSF standard regimen, Plerixafor 5 mg/kg i.p. 1 h
Experimental: (§6) Cell labeling was performed according to standard protocols using established marker panels for identification of different subsets in mouse hematopoietic tissues. Antibodies used in this study are detailed in Supplementary Methods. Subsequent acquisition and analysis were performed on a BD FACSCanto II cytometer with the FACSDiva software (BD Biosciences). Some data were further analyzed using the FlowJo software (Tree Star, Inc., Ashland, OR, USA). Cell isolation by flow sorting was performed on a BD FACS Aria II (BD Biosciences).
Figure S3: Mobilization of mature cell subsets by POL5551. A: Time-response of POL5551 mediated mobilization of WBCs. C57BL/6 mice received POL5551 (5 mg/kg) i.p. and blood was drawn at the indicated time points for blood count analysis (mean±SEM from 5 mice). B: Relative distribution of leukocytes in mobilized blood specimen. Blood was drawn before (baseline) and 4 hours after POL5551 injection i.p. (mean±SEM, n=5). […] C: Mobilization of T-, B-cells, monocytes and granulocytes. Blood composition was analyzed 4 hours after POL5551 injection (30 mg/kg, i.p. mean±SEM, n=6). […] D: Assessment of mobilized T-cell subsets.

[13] = tested on: PB-mobilized CFU-C migrating towards CXCL12; assay: Ex vivo migration of mobilized CFU-C towards CXCL12; assay type: cell-based, mouse; conditions: G-CSF standard regimen; n=5–8
Experimental: as §2

[14] = tested on: c-kit+ cells; assay: Immunophenotype of c-kit+ cells; assay type: in vivo, C57BL/6 mice; conditions: G-CSF standard regimen, after 9th dose, mean +/- SEM, n=5
Experimental: as §6
C57BL/6 mice were mobilized with a bolus injection of POL5551 (5 or 30 mg/kg, i.p., n=5) or standard regimen of G-CSF (n=5). Saline treated animals (n=5) served as steady-state BM and PB donors. […] Percentage of positive cells was evaluated in comparison to isotype control. Mean fluorescence intensity was analyzed among c-kit+ cells.

[15] = tested on: long-term repopulating HSCs; assay: Limiting dilution competitive repopulating unit (CRU) assay; assay type: in vivo, mouse; conditions: POL5551 30 mg/kg i.p.; G-CSF standard regimen; 16 weeks, n=5–10
Experimental: To determine the frequency of long-term repopulating HSCs in POL5551 versus G-CSF-mobilized blood, a limiting dilution CRU assay was performed.[34] Lethally irradiated CD45.2 hosts, 5–10 per group, received i.v. grafts consisting of limiting volumes (2.5, 5.0 and 10 μl) of CD45.1 POL5551 or G-CSF-mobilized blood cells together with 2.5 × 10^5 CD45.2 BM competitor cells. After 16 weeks, multilineage contribution of the CD45.1 graft-derived leukocytes was measured using flow cytometry. Animals with evidence of mobilized blood-derived (that is, CD45.1+) Gr1+, CD11b+, B220+ and CD3+ cells (⩾0.5% for each lineage) were considered positive for donor cell engraftment. CRU (LTRC) frequency was calculated using the LCALC software (Stem Cell Technologies).
Figure 5 Mobilization of CRU by POL5551. CRU frequency in POL5551 (30 mg/kg)-mobilized blood was determined using a CRU assay and compared with the CRU frequency in G-CSF (standard regimen)-mobilized blood. […] CRU engraftment, defined as multilineage engraftment of ⩾0.5% per lineage was quantified 16 weeks after transplantation. […] The mean CRU (LTRC) frequency (b) was calculated using Poisson's statistic (LCALC software, Stem Cell Technologies) (mean±upper/lower frequency).

## O=P1(N(CCCl)CCCl)NCCCO1 (stereo not drawn) [CY, Cyclophosphamide]
[1]
  Mobilization through collapse of HSC niche cellular components: initiates collapse of HSC niche cellular components

## c1cc(CN2CCCNCCNCCCNCC2)ccc1CN1CCCNCCNCCCNCC1 [Plerixafor]
[2]
  Binding to N-terminus / interference with 1D9 binding: without affecting the binding of 1D9
  Binding to extracellular loops / interference with 12G5 binding: interfered with 12G5 binding
[3]; pre-incubation with 1 μM, n=3
  Inhibition of CXCL12-induced transwell migration of ssBM CFU-C: completely blocked
[4]
  Inhibition of CXCL12-induced F-actin polymerization: did not show an inhibitory effect
[5]; Plerixafor 5 mg/kg i.p., n=4
  Circulating CFU-C: 1300 CFU-C/ml
[6]; Plerixafor 10 mg/kg i.p. after the ninth G-CSF dose, 1 h, n=3
  Rescue of diabetes-induced hyporesponsiveness to G-CSF: could rescue diabetes-induced hyporesponsiveness to G-CSF
[6]; Plerixafor 10 mg/kg i.p., 1 h, n=3
  CFU-C mobilization in diabetic vs healthy mice: markedly decreased (to approximately one-fourth)
[7]
  Mobilization in combination with G-CSF: noticeably enhanced
[8]
  CFU-C mobilized in combination with CY: > 40 000 CFU-C per ml PB
  Synergism with CY compared with CY plus G-CSF: more pronounced than the combination of CY plus G-CSF
[9]
  Toxicity limiting dose: could not be tested at doses >10 mg/kg because of its toxicity
[10]
  Dose at which mobilization peaks: 5 mg/kg

## CXCL12: the natural ligand, the chemokine CXCL12
[3]; percent of input CFU-C, no inhibitor, n=13
  CXCL12-induced transwell migration of ssBM CFU-C: ~6%

B1: G-CSF: rhG-CSF (Granocyte, Chugai, Frankfurt, Germany) (protein, UniProt P09919 31-207, looked up)
Granulocyte …: TPLGPASSLPQSFLLKCLEQVRKIQGDGAALQEKLVSECATYKLCHPEELVLLGHSLGIPWAPLSSCPSQALQLAGCLSQLHSGLFLYQGLLQALEGISPELGPTLDTLQLDVADFATTIWQQMEELGMAPALQPTQGAMPAFASAFQRRAGGVLVASHLQSFLEVSYRVLRHLAQP
[5]; G-CSF standard regimen (100 μg/kg every 12 h, nine doses i.p.), n=58
  Circulating CFU-C: 3800 CFU-C/ml
[11]
  Mobilization in DBA/2 relative to C57BL/6 mice: at least six times more CFU-C in DBA/2 than in C57BL/6 mice
[6]; G-CSF standard regimen, n=6
  CFU-C mobilization in diabetic vs healthy mice: markedly decreased (to approximately one-fourth)
[12]
  Frequency of neutrophils in mobilized vs non mobilized blood: most prominently in G-CSF-mobilized
[13]
  Responsiveness of mobilized CFU-C to CXCL12: to a similar degree as was also observed for G-CSF-mobilized blood
[14]
  CD26, RMFI of c-kit+ cells: 291 +/- 56
  CD26, positive c-kit+ cells: 1,6 +/- 0,3%
  CD29, RMFI of c-kit+ cells: 1587 +/- 267
  CD29, positive c-kit+ cells: 38,0 +/- 6,2%
  CD49e, RMFI of c-kit+ cells: 772 +/- 39
  CD49e, positive c-kit+ cells: 55,2 +/- 3,5%
  CD49f, RMFI of c-kit+ cells: 642 +/- 104
  CD49f, positive c-kit+ cells: 24,2 +/- 4,7%
  CD49d, RMFI of c-kit+ cells: 1179 +/- 58
  CD49d, positive c-kit+ cells: 72,6 +/- 3,6%
  VCAM1, RMFI of c-kit+ cells: 384 +/- 73
  VCAM1, positive c-kit+ cells: 0,7 +/- 0,1%
[15]
  CRU frequency in mobilized blood: 34 CRU/ml
[1]
  Mobilization through collapse of HSC niche cellular components: initiates collapse of HSC niche cellular components
